Assay results: paper PMC12324117

Molecular target: LRRC4B (453–576) protein (UniProt Q9NT99)
Test: ELISA; plates coated with LRRC4B (453–576) protein at 1 µg/ml in 50 mM carbonate buffer pH 9.6; FAM19A5 added; detected with HRP-conjugated C-A5-Ab; OD 450 nm (format as told for the CSF ELISA); n = 10 each

UniProt Q9NT99, sequence (Q9NT99 453-576): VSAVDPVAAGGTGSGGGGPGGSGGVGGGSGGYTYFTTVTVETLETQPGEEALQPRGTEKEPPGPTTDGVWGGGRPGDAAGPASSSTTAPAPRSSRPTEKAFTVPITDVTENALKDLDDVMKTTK

EC50	Substance
2.56 nM	MT FAM19A5 protein (ELISA) (natural protein)
0.199 nM	WT FAM19A5 protein (ELISA) (natural protein)
